In this assay the target is T1, CS-1 (human, UniProt Q9NQ25 23-335).
T1 sequence (looked up): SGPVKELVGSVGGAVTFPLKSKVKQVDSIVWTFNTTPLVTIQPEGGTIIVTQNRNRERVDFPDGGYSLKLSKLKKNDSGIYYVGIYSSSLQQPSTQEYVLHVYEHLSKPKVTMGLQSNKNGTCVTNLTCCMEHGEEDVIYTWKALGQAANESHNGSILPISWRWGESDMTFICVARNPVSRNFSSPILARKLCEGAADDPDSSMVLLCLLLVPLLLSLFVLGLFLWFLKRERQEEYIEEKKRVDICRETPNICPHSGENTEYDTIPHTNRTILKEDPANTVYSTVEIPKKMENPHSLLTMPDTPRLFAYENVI
The assay can be described thus: cell-based or functional assay.

B1: anti-CS-1 tri-specific cytotoxic lymphocytes engager (TriCLE) (bispecific antibody)
chain: QVQLVESGGGLVKPGGSLRLSCAASGFTFSSYGMHWVRQAPGKGLEWVAFIRYDGSNKYYADSVKGRFTISRDNSKNTLYLQMNSLRAEDTAVYYCAKDRGLGDGTYFDYWGQGTTVTVSSGGGGSGGGGSGGGGSQSALTQPASVSGSPGQSITISCSGSSSNIGNNAVNWYQQLPGKAPKLLIYYDDLLPSGVSDRFSGSKSGTSAFLAISGLQSEDEADYYCAAWDDSLNGPVFGGGTKLTVLPSGQAGAAASESLFVSNHAYKLELKTGAGFTLPTSYHQQCYYVALDEAQVNSITFTFDTGSGSGTFRDPVGTYRYSASYILLKPSQGPKQQYWAVGTIVDQSAKCTISVRDGVSTSMSKQSQTMVIDGGGGSGGGGSGGGGSSVTVSTGQGWYDMARTAIMTSRACYYVASDESTPSSLQMYATSSSKDVTLTAKDKFKQNLRTESDSPHIMGIWELGQGPRQKVWNMWYTTFSYGSAKCSLKVSAGPRVLEAGPQQLQVQSHHHHHH
As to B1, the “EC50 of cytotoxicity of TriCLE-activated PBMCs against H929” value was 1.2 nM, the “EC50 of cytotoxicity of TriCLE-activated PBMCs against MM1.s” value was determined as 0.003 nM and the “EC50 of cytotoxicity of TriCLE-activated PBMCs against RPMI-8226” value came to 1.8 nM.

The record behind these values is patent US20180237519A1 (OHIO STATE INNOVATION FOUNDATION, published 2018).
